Patent US20260103719

B1: CDPK8-HIS protein (tomato calcium-dependent protein kinase 8, Solyc11g065660, His-tagged, expressed in vitro and purified) (protein)
chain: MGNCCGTPGNSSENKKKKNKPNPFALDYGATQASGGDGNKLVVLKDPTGHNIQEKYDLGCELGRGEFGVTYLCTDVDTGDKYACKSISKKKLRTAVDIDDVRREVEIMKHLPKHPNIVTLKDTYEDDNAVHIVMELCEGGELFDRIVARGHYTERAAAVIMKTIVEVVQMCHMHGVMHRDLKPENFLFGNKKETAPLKAIDFGLSVFFKPGERFNEIVGSPYYMAPEVLKRNYGPEVDVWSAGVILYILLCGVPPFWAETEQGVAQAIIRSVVDFKRDPWPKVSDNAKDLVKKMLDPDPTRRLTAQQVLEHTWLQNIKKAPNVSLGETVKARLKQFSVMNKLKKRALTIMAEFLSAEEVAGMKDAFDMMDTGKKGKINLGELKNGLQKLGHQIPDVDLQILMEAADVDGDGSLNYGEFVAVSVHLRKMANDEHLHKAFSVFDRDQSGYIEIEELRSALSDEDGGNSEEVINAIMHDVDTDKDGRISYEEFAAMMKAGTDWRKASRQYSRERFNSLSLKLMRDGSIQVGKEEGR
B2: mCDPK8-His protein without kinase activity (CDPK8 lacking two key amino acids) (protein)
chain: MGNCCGTPGNSSENKKKKNKPNPFALDYGATQASGGDGNKLVVLKDPTGHNIQEKYDLGCERGEFGVTYLCTDVDTGDKYACKSISKKKLRTAVDIDDVRREVEIMKHLPKHPNIVTLKDTYEDDNAVHIVMELCEGGELFDRIVARGHYTERAAAVIMKTIVEVVQMCHMHGVMHRDLKPENFLFGNKKETAPLKAIDFGLSVFFKPGERFNEIVGSPYYMAPEVLKRNYGPEVDVWSAGVILYILLCGVPPFWAETEQGVAQAIIRSVVDFKRDPWPKVSDNAKDLVKKMLDPDPTRRLTAQQVLEHTWLQNIKKAPNVSLGETVKARLKQFSVMNKLKKRALTIMAEFLSAEEVAGMKDAFDMMDTGKKGKINLGELKNGLQKLGHQIPDVDLQILMEAADVDGDGSLNYGEFVAVSVHLRKMANDEHLHKAFSVFDRDQSGYIEIEELRSALSDEDGGNSEEVINAIMHDVDTDKDGRISYEEFAAMMKAGTDWRKASRQYSRERFNSLSLKLMRDGSIQVGKEEGR

Columns and labels:
[1] = molecular target: SlSuSy3^S11A (SuSy3 protein with the serine at position 11 mutated to alanine)
Chain of SlSuSy3^S11A (SuSy3 protein with the serine at position 11 mutated to alanine) (chain, as listed by the source S11A): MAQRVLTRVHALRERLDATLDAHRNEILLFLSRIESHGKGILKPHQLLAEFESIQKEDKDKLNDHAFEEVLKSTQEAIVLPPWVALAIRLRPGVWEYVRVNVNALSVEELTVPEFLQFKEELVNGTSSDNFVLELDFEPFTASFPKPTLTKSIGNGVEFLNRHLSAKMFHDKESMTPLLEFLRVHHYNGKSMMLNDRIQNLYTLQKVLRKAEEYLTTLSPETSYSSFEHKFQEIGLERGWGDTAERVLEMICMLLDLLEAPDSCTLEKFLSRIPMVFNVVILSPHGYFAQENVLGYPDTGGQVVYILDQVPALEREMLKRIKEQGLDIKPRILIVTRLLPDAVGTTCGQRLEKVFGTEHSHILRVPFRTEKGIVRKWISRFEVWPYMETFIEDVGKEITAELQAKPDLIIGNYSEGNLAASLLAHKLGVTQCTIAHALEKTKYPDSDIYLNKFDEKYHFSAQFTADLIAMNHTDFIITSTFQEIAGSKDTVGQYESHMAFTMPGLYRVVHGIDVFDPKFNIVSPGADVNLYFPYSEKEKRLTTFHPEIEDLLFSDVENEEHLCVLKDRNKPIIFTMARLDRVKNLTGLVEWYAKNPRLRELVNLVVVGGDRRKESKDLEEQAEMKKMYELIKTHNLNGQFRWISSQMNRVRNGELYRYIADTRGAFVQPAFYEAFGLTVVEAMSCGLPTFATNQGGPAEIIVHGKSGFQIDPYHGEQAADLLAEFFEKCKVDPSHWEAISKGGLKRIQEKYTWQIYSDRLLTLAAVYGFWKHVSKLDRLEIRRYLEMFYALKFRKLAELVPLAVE

[2] = molecular target: SuSy3-HIS protein (tomato sucrose synthase SuSy3, Solyc07g042550.2.1, His-tagged, expressed in vitro and purified)
Chain of SuSy3-HIS protein (tomato sucrose synthase SuSy3, Solyc07g042550.2.1, His-tagged, expressed in vitro and purified) (chain, as listed by the source): as the sequence (chain, as listed by the source S11A) above, with A11S counted along it

Protein | in vitro phosphorylation assay (autoradiography) [1] | in vitro phosphorylation (gamma-32P-ATP, SDS-PAGE, autoradiography) [2] | in vitro phosphorylation assay (autoradiography) [2] | mass spectrometry of phosphorylated residues after co-incubation [2]
B1 | there is no autoradiographic band, indicating that CDPK8 cannot phosphorylate SISuSy3^S11A | the CDPK8 protein itself has kinase activity and can phosphorylate the SuSy3 protein | CDPK8 can phosphorylate the serine at position 11 (S11) of the SuSy3 protein | 14 amino acid residues on the SuSy3 protein can be phosphorylated by CDPK8 protein, and the sites are T7, S11, T19, S152, S165, S174, T176, S191, S219, S360, T430, S535, T543, and S706 in sequence
B2 | – | the mCDPK8 protein lacking two key amino acids has no kinase activity and cannot phosphorylate the SuSy3 protein | – | –
